The chains are these.
T1: human NPR1 on HEK293/hNPR1.myc.DDK cells (0 hANP) (human, UniProt P16066 33-1061)
T1 sequence: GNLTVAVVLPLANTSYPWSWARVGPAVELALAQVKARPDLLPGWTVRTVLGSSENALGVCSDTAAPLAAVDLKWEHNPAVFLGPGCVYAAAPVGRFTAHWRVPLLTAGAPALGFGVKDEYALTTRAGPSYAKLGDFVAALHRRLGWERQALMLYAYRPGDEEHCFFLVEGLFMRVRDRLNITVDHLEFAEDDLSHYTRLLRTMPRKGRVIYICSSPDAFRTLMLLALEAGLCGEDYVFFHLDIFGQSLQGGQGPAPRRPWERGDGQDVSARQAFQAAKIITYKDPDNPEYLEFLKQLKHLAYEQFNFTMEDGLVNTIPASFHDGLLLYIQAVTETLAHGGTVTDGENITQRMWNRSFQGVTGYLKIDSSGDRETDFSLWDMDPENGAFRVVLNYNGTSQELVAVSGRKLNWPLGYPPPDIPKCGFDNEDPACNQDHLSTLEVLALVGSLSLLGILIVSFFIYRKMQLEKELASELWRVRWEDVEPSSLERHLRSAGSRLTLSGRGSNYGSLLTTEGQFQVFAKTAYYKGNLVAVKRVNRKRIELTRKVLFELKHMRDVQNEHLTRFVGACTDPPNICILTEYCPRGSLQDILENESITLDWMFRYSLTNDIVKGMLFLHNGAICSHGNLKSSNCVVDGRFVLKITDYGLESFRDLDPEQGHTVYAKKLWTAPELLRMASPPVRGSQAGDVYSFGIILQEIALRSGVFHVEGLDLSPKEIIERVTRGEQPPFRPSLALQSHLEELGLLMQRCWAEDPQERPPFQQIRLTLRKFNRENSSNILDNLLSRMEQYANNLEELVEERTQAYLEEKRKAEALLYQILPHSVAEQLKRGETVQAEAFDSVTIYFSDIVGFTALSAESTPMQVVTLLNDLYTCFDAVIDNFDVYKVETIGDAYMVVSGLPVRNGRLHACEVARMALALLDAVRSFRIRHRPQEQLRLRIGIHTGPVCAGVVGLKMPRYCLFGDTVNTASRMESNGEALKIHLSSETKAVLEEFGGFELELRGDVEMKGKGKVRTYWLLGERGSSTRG

T2: human NPR1 on HEK293/hNPR1.myc.DDK cells with 10 nM hANP (NPR1-ANP complex) (human, UniProt P01160 124-151)
T2 construct: also called NPR1-ANP Complex on the Cell Surface
T2 sequence: T1 sequence
T2 sequence (peptide): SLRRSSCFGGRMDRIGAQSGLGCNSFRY

T3: mNPR1-mFc (mouse)
T3 construct: also called mouse NPR1 extracellular domain expressed with a C-terminal mouse IgG2a
T3 chain: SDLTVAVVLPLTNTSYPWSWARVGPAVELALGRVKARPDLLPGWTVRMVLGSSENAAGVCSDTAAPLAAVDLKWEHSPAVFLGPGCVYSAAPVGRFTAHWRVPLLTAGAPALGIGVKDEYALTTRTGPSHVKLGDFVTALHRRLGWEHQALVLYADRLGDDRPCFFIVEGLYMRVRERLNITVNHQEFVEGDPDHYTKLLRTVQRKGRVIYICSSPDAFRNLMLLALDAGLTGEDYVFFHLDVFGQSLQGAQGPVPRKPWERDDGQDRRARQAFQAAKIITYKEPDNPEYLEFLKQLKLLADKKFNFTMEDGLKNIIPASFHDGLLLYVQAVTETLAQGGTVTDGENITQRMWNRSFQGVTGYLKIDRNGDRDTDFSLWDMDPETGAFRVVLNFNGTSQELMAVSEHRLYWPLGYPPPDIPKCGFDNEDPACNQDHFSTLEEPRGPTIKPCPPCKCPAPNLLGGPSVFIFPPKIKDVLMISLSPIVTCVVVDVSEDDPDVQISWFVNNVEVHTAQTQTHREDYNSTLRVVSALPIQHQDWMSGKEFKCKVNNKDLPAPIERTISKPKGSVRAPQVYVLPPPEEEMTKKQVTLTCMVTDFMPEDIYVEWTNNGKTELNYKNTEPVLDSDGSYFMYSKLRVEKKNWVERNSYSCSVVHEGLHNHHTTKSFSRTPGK

B1: mAb22035 (antibody, human IgG4, V domains shown)
VH: EVQLVESGGGLVQPGRSLRLSCAASGFTFDDYAMHWVRQAPGKGLEWVSGISWNSGTIGYADSVKGRFTMSRDNAKNSLYLQMNSLRPEDTALYYCAKDMGVSLALWGAFDIWGQGTMVTVSS
VL: DIQMTQSPSSLSASVGDKVTITCRASQNIRTYLNWYQQKPGKAPKVLISTASSLQSGVPSRFSGSGSGTDFTLTISSLQPEDFAVFYCQQSFGIPRTFGQGTKVEIK
B2: mAb25491 (antibody, human IgG4, V domains shown)
VH: QVQLVQSGAEVMKPGASVKVSCKASGYTFTGYYIHWVRQAPGQGLEWMGWITPNSGATNYAQKFQGRVTLTRDTSISTAYMELTRLKSDDTAVYYCARGGQLEFFYYYYGMDVWGQGTTVTVSS
VL: DIQMTQSPSSLSASAGDRVTITCRASQSIDSYLNWYQQKPGKAPKLLISATSGFQSGVPSRFSGSGSGTDFTLTISSLQPEDFGTYYCQQSYTTPITFGQGTRLEIK
B3: mAb22033 (antibody, human IgG4, V domains shown)
VH: QVQLVQSGAEVKKPGASVTVSCKASGYTFTDYYMHWVRQAPGQGLEWMGWIKPNSGGTNSAQRFQGRITMTWDTSISTAYMELSRLRSDDTAVYYCSRGGPVMNYYYYYGMDVWGQGTTVTVSS
VL: NIQMTQSPSSLSASVGDRVTITCRASQSIDSYLNWYQQKPGKAPKLLIYVASSLQSGVPSRFSGSGSGKDFTLTISSLQPEDFATYYCQQSYSIPTFGQGTRLEIK
B4: mAb25502 (antibody, human IgG4, V domains shown)
VH: QLQLQESGPGLVKPSETLSLTCTVSGGSISSSSYYWGWIRQPPGKGLEWIGSIYYSGSPYYIPSLKSRVTISVDTSKNQFSLKLSSVTAADTAMYYCARQGRGIARAGPFDYWGQGTLVTVSS
VL: DIQMTQSPSSLSASVGDRVTITCRASQGISNYLAWYQEKPGKVPKLLIYAASTLQSGVPSRFSGSGSGTDFTLTITSLQSEDVATYYCQKYNSAPPWTFGQGTKVEIK

The EC50 is the midpoint of the concentration-response curve. The Kd is the constant that tells how readily two partners part at equilibrium. A lower Kd goes with a tighter complex. In general, koff refers to a measure of how fast the partners let go of each other. Low readings indicate a long-lived complex, high ones a short-lived complex. What is called kon is a measure of how fast the partners come together. Usually t½ stands for the time in which the quantity being followed falls by half.

The first assay has as its target T1, human NPR1 on HEK293/hNPR1.myc.DDK …. Put plainly: cell-based or functional assay.
For B1, the “% Activation (vs ANP max), Expt 1” value was found to be 73.1%; the “% Activation (vs. ANP max), Expt II” value was determined as 56.8%; the “EC50 (nM), calcium flux, Expt 1” value worked out at 384 nM; the “EC50 (nM), calcium flux, Expt II” value is over 200 nM.
On the same counts, the results for B2 are 74.6%, 104%, 102 nM and 43.4 nM.
For B3 the same measures were 130%, 129%, 83.7 nM and 41.6 nM.

Another assay has the same target. As to the kind of experiment: ECL cell binding (MSD), 0 hANP. The protocol: (§1) All cells were washed once with 1×PBS with Ca²⁺/Mg²⁺ and counted with a Cellometer™ Auto T4 cell counter (Nexcelom Bioscience). Approximately 2.0×10⁴ HEK293/hNPR1.myc.DDK or HEK293 cells were seeded separately onto 96-well carbon electrode plates (MULTI-ARRAY high bind plate, Meso Scale Discovery (MSD, Rockville, MD)) and incubated for 1 hour (h) at 37° C. Nonspecific binding sites were blocked by 2% BSA (w/v) in 1×PBS with Ca²⁺/Mg²⁺for 1 h at room temperature (RT). HEK293/hNPR1.myc. […] The plate-bound antibodies were detected with SULFO-TAG™-conjugated goat polyclonal anti-human IgG antibody specific for heavy and light chains (Jackson Immunoresearch, West Grove, PA) for 1 h, RT.
(§2) After washes, plates were developed with Read Buffer (MSD, Rockville, MD) according to manufacturer's recommended procedure and luminescent signals were recorded with a SECTOR Imager 600 (MSD, Rockville, MD). Luminescence intensity, measured in relative light units (RLU), was recorded to indicate the binding intensity of each antibody at the range of concentrations.
(§3) In addition, direct binding signals (RLU) were analyzed as a function of the antibody concentration and data were fitted with a sigmoidal (four-parameter logistic) dose-response model using R statistical package (open source).
Take B1: the EC50 came to 2.3 nM and the “Ratio at 3.7 nM Ab concentration of Cell Binding Signal (RLU) to HEK293/hNPR1.myc.DKK relative to parental HEK293” value came out at 151 ratio.
For B2 the same measures were 1.6 nM and 58 ratio.
For B3 the same measures were 0.49 nM and 207 ratio.

The target of a further assay is T2, human NPR1 on HEK293/hNPR1.myc.DDK …. As to the kind of experiment: ECL cell binding (MSD), +10 nM hANP. The protocol: as §1, §2, §3
As for B1, the 50% effective concentration (EC50) amounted to 0.89 nM and the “Ratio at 3.7 nM Ab concentration of Cell Binding Signal (RLU) to HEK293/hNPR1.myc.DKK relative to parental HEK293” value turned out to be 220 ratio.
With B4, the “Ratio at 3.7 nM Ab concentration of Cell Binding Signal (RLU) to HEK293/hNPR1.myc.DKK relative to parental HEK293” value turned out to be 14 ratio.
Consider B2, for which the concentration for a half-maximal effect (EC50) turned out to be 1 nM and the “Ratio at 3.7 nM Ab concentration of Cell Binding Signal (RLU) to HEK293/hNPR1.myc.DKK relative to parental HEK293” value was found to be 78 ratio.
On the same counts, the results for B3 are 0.82 nM and 236 ratio.

The target in another assay is T4, mfNPR1-mFc:hBNP complex (monkey; human, UniProt P16860 103-134).
T4 construct: Receptor-Fc pre-complexed with 10-fold hBNP
As to the kind of experiment: SPR Biacore, mAb captured by anti-human Fc, 37C. The protocol: (§4) Equilibrium dissociation constant (KD) for different NPR1 reagents binding to purified anti-NPR1 monoclonal antibodies (mAbs) were determined using a real-time surface plasmon resonance based Biacore 4000 biosensor. All binding studies were performed in 10 mM HEPES, 150 mM NaCl, 3 mM EDTA, and 0.05% v/v Surfactant Tween-20, pH 7.4 (HBS-ET) running buffer at 25° C. and 37° C. The Biacore CM5 sensor chip surface was first derivatized by amine coupling with either mouse anti-human Fc specific mAb (GE Healthcare, #BR100839) or goat anti-human Fcy specific polyclonal antibody (Jackson ImmunoResearch Laboratories, #BR-1008-39) to capture anti-NPR1 mAbs.
B1: the “100 nM Ag Bound (RU)” value turned out to be 286 RU, binding was put at a Kd of 0.368 nM, the off-rate constant (koff) worked out at 9.48e-05 s⁻¹ and the kon was found to be 258000 M⁻¹ s⁻¹. Also, the t½ turned out to be 2.03 h.
On the same counts, the results for B4 are 139 RU, 5.65 nM, 0.000481 s⁻¹, 85200 M⁻¹ s⁻¹ and 0.4 h.
On the same counts, the results for B2 are 146 RU, 1.6 nM, 0.00011 s⁻¹, 68900 M⁻¹ s⁻¹ and 1.75 h.
For B3 the same measures were 167 RU, 1.3 nM, 8.8e-05 s⁻¹, 67500 M⁻¹ s⁻¹ and 2.19 h.

The target in the next assay is T3, mNPR1-mFc. As to the kind of experiment: SPR Biacore, mAb captured by anti-human Fc, 37C. The protocol: as §4
On to B1, for which the “100 nM Ag Bound (RU)” value is 0 RU.
With B4, the “100 nM Ag Bound (RU)” value was 1 RU and the binding result is listed as “no binding (tested: 100 nM)”.
For B2 the same measures were 1 RU and “no binding (tested: 100 nM)”.
For the molecule B3, the “100 nM Ag Bound (RU)” value was determined as 1 RU.

A further assay has as its target T3, mNPR1-mFc. As to the kind of experiment: SPR Biacore, mAb captured by anti-human Fc, 25C. The protocol:
as §4
A general note: Surface plasmon resonance follows binding to a sensor surface in real time, without labels.
Consider B1, for which the “100 nM Ag Bound (RU)” value was -1 RU.
The same measure, in the same setting: in the case of B4 it was 1 RU; in that of B2, 1 RU.
B3: the “100 nM Ag Bound (RU)” value worked out at 0 RU and the binding result is given as “no binding (tested: 100 nM)”.

For the origin of these results see patent publication US20240309103A1 (Regeneron, published 2024).
